# According to patent US20260266848A1, “COMPOSITIONS AND METHODS FOR DIAGNOSING AND TREATING DYSTONIA” (Duke University, priority 2023, published 2026):
# B1: Aldh2 (protein, UniProt P47738 20-519, looked up)
# Aldehyde dehydrogenase, …: SAAATSAVPAPNHQPEVFCNQIFINNEWHDAVSRKTFPTVNPSTGEVICQVAEGNKEDVDKAVKAARAAFQLGSPWRRMDASDRGRLLYRLADLIERDRTYLAALETLDNGKPYVISYLVDLDMVLKCLRYYAGWADKYHGKTIPIDGDFFSYTRHEPVGVCGQIIPWNFPLLMQAWKLGPALATGNVVVMKVAEQTPLTALYVANLIKEAGFPPGVVNIVPGFGPTAGAAIASHEGVDKVAFTGSTEVGHLIQVAAGSSNLKRVTLELGGKSPNIIMSDADMDWAVEQAHFALFFNQGQCCCAGSRTFVQENVYDEFVERSVARAKSRVVGNPFDSRTEQGPQVDETQFKKILGYIKSGQQEGAKLLCGGGAAADRGYFIQPTVFGDVKDGMTIAKEEIFGPVMQILKFKTIEEVVGRANDSKYGLAAAVFTKDLDKANYLSQALQAGTVWINCYDVFGAQSPFGGYKMSGSGRELGEYGLQAYTEVKTVTVKVPQKNS
# B2: Nectin2 (protein, UniProt Q92692 32-538, looked up)
# Nectin-2: QDVRVQVLPEVRGQLGGTVELPCHLLPPVPGLYISLVTWQRPDAPANHQNVAAFHPKMGPSFPSPKPGSERLSFVSAKQSTGQDTEAELQDATLALHGLTVEDEGNYTCEFATFPKGSVRGMTWLRVIAKPKNQAEAQKVTFSQDPTTVALCISKEGRPPARISWLSSLDWEAKETQVSGTLAGTVTVTSRFTLVPSGRADGVTVTCKVEHESFEEPALIPVTLSVRYPPEVSISGYDDNWYLGRTDATLSCDVRSNPEPTGYDWSTTSGTFPTSAVAQGSQLVIHAVDSLFNTTFVCTVTNAVGMGRAEQVIFVRETPNTAGAGATGGIIGGIIAAIIATAVAATGILICRQQRKEQTLQGAEEDEDLEGPPSYKPPTPKAKLEAQEMPSQLFTLGASEHSPLKTPYFDAGASCTEQEMPRYHELPTLEERSGPLHPGATSLGSPIPVPPGPPAVEDVSLDLEDEEGEEEEEYLDKINPIYDALSYSSPSDSYQGKGFVMSRAMYV
# B3: Nif3l1 (protein, UniProt Q9EQ80 1-376, looked up)
# NIF3-like protein 1: MLSSAHLVPTSVQRAQSWICRSSRSFMDLKALLSSLNDFASLSFAESWDNVGLLVEPSPPHTVNTLFLTNDLTEEVMDEALQKKADFILSYHPPIFRPMKHITWKTWKECLVIRALENRVAVYSPHTAYDAAPQGVNSWLAKGLGTCTTRPIHPSRAPDYPTEGAHRLEFSVNRSQDLDKVMSTLRGVGGVSVTSFPARCDGEEQTRISLNCTQKTLMQVLAFLSQDRQLYQKTEILSLEKPLLLHTGMGRLCTLDESVSLAIMIERIKTHLKLSHLRLALGVGRTLESQVKVVALCAGSGGSVLQGVEADLYLTGEMSHHDVLDAASKGINVILCEHSNTERGFLSELQEMLGVHFENKINIILSETDRDPLRVV
# B4: Steap3 (protein, UniProt Q8CI59 1-488, looked up)
# Metalloreductase STEAP3: MSGEMDKPLISRRLVDSDGSLAEVPKEAPKVGILGSGDFARSLATRLVGSGFSVVVGSRNPKRTAGLFPSLAQVTFQEEAVSSPEVIFVAVFREHYSSLCSLADQLAGKILVDVSNPTEKEHLQHRQSNAEYLASLFPACTVVKAFNVISAWALQAGPRDGNRQVLICSDQPEAKRTISEMARAMGFTPLDMGSLASAREVEAIPLRLLPSWKVPTLLALGLFVCFYTYNFIRDVLQPYIRKDENKFYKMPLSVVNTTLPCVAYVLLSLVYLPGVLAAALQLRRGTKYQRFPDWLDHWLQHRKQIGLLSFFFAMLHALYSFCLPLRRSHRYDLVNLAVKQVLANKSRLWVEEEVWRMEIYLSLGVLALGMLSLLAVTSLPSIANSLNWKEFSFVQSTLGFVALILSTMHTLTYGWTRAFEENHYKFYLPPTFTLTLLLPCVIILAKGLFLLPCLSRRLTKIRRGWEKDGAVKFMLPGDHTQGEKTSHV
# B5: Slc9a1 (protein, UniProt Q61165 1-820, looked up)
# Sodium/hydrogen exchanger 1: MMLRWSGVWGFHPPRIFPSLLVVVALVGLLPVLRSHGLQHSPTASTIRGSEPPRERSIGDVTTAPSEPLHRPDDHNLTNLIIEHGGKPSRKAFPVLDIDYPHVRTPFEISLWILLACLMKIGFHVIPTISSIVPESCLLIVVGLLVGGLIKGVGETPPFLQSDVFFLFLLPPIILDAGYFLPLRQFTENLGTILIFAVVGTLWNAFFLGGLLYAVCLVGGEQINNIGLLDTLLFGSIISAVDPVAVLAVFEEIHINELLHILVFGESLLNDAVTVVLYHLFEEFASYDSVGISDIFLGFLSFFVVALGGVFVGVVYGVIAAFTSRFTSHIRVIEPLFVFLYSYMAYLSAELFHLSGIMALIASGVVMRPYVEANISHKSHTTIKYFLKMWSSVSETLIFIFLGVSTVAGSHQWNWTFVISTLLFCLIARVLGVLVLTWFINKFRIVKLTPKDQFIIAYGGLRGAIAFSLGYLLDKKHFPMCDLFLTAIITVIFFTVFVQGMTIRPLVDLLAVKKKQETKRSINEEIHTQFLDHLLTGIEDICGHYGHHHWKDKLNRFNKKYVKKCLIAGERSKEPQLIAFYHKMEMKQAIELVESGGMGKIPSAVSTVSMQNIHPKAVTSDRILPALSKDKEEEIRKILRSNLQKTRQRLRSYNRHTLVADPYEEAWNQMLLRRQKARQLEQKITNYLTVPAHKLDSPTLSRARIGSDPLAYEPKADLPVITIDPASPQSPESVDLVNEELKGKVLGLNRGPRVTPEEEEEDEDGIIMIRSKEPSSPGTDDVFTPGSSDSPSSQRIQRCLSDPGPHPEPGEGEPFIPKGQ
# B6: Txnl1 (protein, UniProt O43396 2-289, looked up)
# Thioredoxin-like protein 1: VGVKPVGSDPDFQPELSGAGSRLAVVKFTMRGCGPCLRIAPAFSSMSNKYPQAVFLEVDVHQCQGTAATNNISATPTFLFFRNKVRIDQYQGADAVGLEEKIKQHLENDPGSNEDTDIPKGYMDLMPFINKAGCECLNESDEHGFDNCLRKDTTFLESDCDEQLLITVAFNQPVKLYSMKFQGPDNGQGPKYVKIFINLPRSMDFEEAERSEPTQALELTEDDIKEDGIVPLRYVKFQNVNSVTIFVQSNQGEEETTRISYFTFIGTPVQATNMNDFKRVVGKKGESH
# B7: Fgfr1 (protein, UniProt P16092 22-822, looked up)
# Fibroblast growth factor …: RPAPTLPEQAQPWGVPVEVESLLVHPGDLLQLRCRLRDDVQSINWLRDGVQLVESNRTRITGEEVEVRDSIPADSGLYACVTSSPSGSDTTYFSVNVSDALPSSEDDDDDDDSSSEEKETDNTKPNRRPVAPYWTSPEKMEKKLHAVPAAKTVKFKCPSSGTPNPTLRWLKNGKEFKPDHRIGGYKVRYATWSIIMDSVVPSDKGNYTCIVENEYGSINHTYQLDVVERSPHRPILQAGLPANKTVALGSNVEFMCKVYSDPQPHIQWLKHIEVNGSKIGPDNLPYVQILKTAGVNTTDKEMEVLHLRNVSFEDAGEYTCLAGNSIGLSHHSAWLTVLEALEERPAVMTSPLYLEIIIYCTGAFLISCMLGSVIIYKMKSGTKKSDFHSQMAVHKLAKSIPLRRQVTVSADSSASMNSGVLLVRPSRLSSSGTPMLAGVSEYELPEDPRWELPRDRLVLGKPLGEGCFGQVVLAEAIGLDKDKPNRVTKVAVKMLKSDATEKDLSDLISEMEMMKMIGKHKNIINLLGACTQDGPLYVIVEYASKGNLREYLQARRPPGLEYCYNPSHNPEEQLSSKDLVSCAYQVARGMEYLASKKCIHRDLAARNVLVTEDNVMKIADFGLARDIHHIDYYKKTTNGRLPVKWMAPEALFDRIYTHQSDVWSFGVLLWEIFTLGGSPYPGVPVEELFKLLKEGHRMDKPSNCTNELYMMMRDCWHAVPSQRPTFKQLVEDLDRIVALTSNQEYLDLSIPLDQYSPSFPDTRSSTCSSGEDSVFSHEPLPEEPCLPRHPTQLANSGLKRR
# Key:
# [1] = test system: WT MEF EVs; experiment: Quantitative LC-MS/MS proteomics of EVs from ISRIB-treated WT MEF cultures; assay type: cell-based, mouse; design: key to ISRIB and DYT Parallel Direction / ISRIB and DYT Parallel Direction, Ctdsp1 / ISRIB and DYT Parallel Direction, Pcdh19 / ISRIB and DYT Parallel Direction, Tspan7 / ISRIB and DYT Parallel Direction, Myo1e / ISRIB and DYT Parallel Direction, Plpp3 / ISRIB and DYT Parallel Direction, Sh3bp4 / ISRIB and DYT Parallel Direction, Dnajc7 / ISRIB and DYT Parallel Direction, Drg1 / ISRIB and DYT Parallel Direction, Maea: YES = protein abundance effect similar to DYT/WT; details: EV protein abundance; for WT + ISRIB/WT Cohen's d: ISRIB-treated WT vs WT; for ISRIB and DYT Parallel Direction: WT + ISRIB vs WT, direction compared with DYT/WT
# [2] = test system: DYT-TOR1A MEF EVs; experiment: Quantitative LC-MS/MS proteomics of EVs from drug-treated DYT-TOR1A MEF cultures (ritonavir, salubrinal); assay type: cell-based, mouse; design: key to RTV Corrective Direction / RTV Corrective Direction, Grwd1 / RTV Corrective Direction, Srrm2 / RTV Corrective Direction, Rbm17 / RTV Corrective Direction, Dcaf8 / RTV Corrective Direction, Edil3 / RTV Corrective Direction, Timp3 / RTV Corrective Direction, Heatr3 / RTV Corrective Direction, Brd4 / RTV Corrective Direction, P3h4 / RTV Corrective Direction, Pacsin3 / RTV Corrective Direction, Naa50 / RTV Corrective Direction, Lpar6 / RTV Corrective Direction, Ndrg1 / RTV Corrective Direction, Kntc1 / RTV Corrective Direction, Cdk11b / RTV Corrective Direction, Sumo1 / RTV Corrective Direction, Lsm4 / RTV Corrective Direction, Hmga2 / RTV Corrective Direction, Cstf1 / RTV Corrective Direction, Tes / RTV Corrective Direction, Sbno1 / RTV Corrective Direction, Unc119b / RTV Corrective Direction, Cfdp1 / RTV Corrective Direction, Sec61b: YES = protein abundance effect opposite to DYT/WT; details: EV protein abundance; for RTV Corrective Direction: DYT + RTV (ritonavir) vs DYT, direction compared with DYT/WT; for DYT + RTV/DYT Cohen's d: ritonavir (RTV)-treated DYT vs DYT
molecule,measurement,setting,value
B1,WT + ISRIB/WT Cohen's d,[1],−7.25
same,ISRIB and DYT Parallel Direction,[1],YES
same,RTV Corrective Direction,[2],YES
same,DYT + RTV/DYT Cohen's d,[2],18.21
B2,WT + ISRIB/WT Cohen's d,[1],−1.19
same,ISRIB and DYT Parallel Direction,[1],YES
same,RTV Corrective Direction,[2],YES
same,DYT + RTV/DYT Cohen's d,[2],3.32
B3,WT + ISRIB/WT Cohen's d,[1],−3.93
same,ISRIB and DYT Parallel Direction,[1],YES
same,RTV Corrective Direction,[2],YES
same,DYT + RTV/DYT Cohen's d,[2],1.58
B4,WT + ISRIB/WT Cohen's d,[1],−3.91
same,ISRIB and DYT Parallel Direction,[1],YES
same,RTV Corrective Direction,[2],YES
same,DYT + RTV/DYT Cohen's d,[2],1.81
B5,WT + ISRIB/WT Cohen's d,[1],0.44
same,ISRIB and DYT Parallel Direction,[1],YES
same,RTV Corrective Direction,[2],YES
same,DYT + RTV/DYT Cohen's d,[2],−2.60
B6,WT + ISRIB/WT Cohen's d,[1],−0.66
same,ISRIB and DYT Parallel Direction,[1],YES
same,RTV Corrective Direction,[2],YES
same,DYT + RTV/DYT Cohen's d,[2],1.99
B7,WT + ISRIB/WT Cohen's d,[1],5.66
same,ISRIB and DYT Parallel Direction,[1],YES
same,RTV Corrective Direction,[2],YES
same,DYT + RTV/DYT Cohen's d,[2],−2.81
